Experimental data published in paper PMC12489474, “New structural insights into the control of the retinoic acid receptors RAR/RXR by DNA, ligands, and transcriptional coregulators” (Nucleic Acids Research, 2025).
One block for each binder: values may come before it.

B3: NCoRNID (nuclear receptor interaction domain of the Nuclear receptor CoRepressor) (domain or fragment, UniProt Q60974 2059-2325, looked up)
chain: QVPRTHRLITLADHICQIITQDFARNQVPSQASTSTFQTSPSALSSTPVRTKTSSRYSPESQSQTVLHPRPGPRVSPENLVDKSRGSRPGKSPERSHIPSEPYEPISPPQGPAVHEKQDSMLLLSQRGVDPAEQRSDSRSPGSISYLPSFFTKLESTSPMVKSKKQEIFRKLNSSGGGDSDMAAAQPGTEIFNLPAVTTSGAVSSRSHSFADPASNLGLEDIIRKALMGSFDDKVEDHGVVMSHPVGIMPGSASTSVVTSSEARRDE
notes: Unlabelled form used for SEC-MALS, SEC-SAXS and HDX-MS; also called NCOR1

Experiments:
[1] = target: RARalpha dAB dF;RXRalpha dAB;NCoR NID (Mus musculus / Homo sapiens (Methods …, UniProt P11416;P19793;Q60974 82-421;126-462;2059-2325, ||)); assay: SEC-SAXS, HDX-MS; BMS493; Fluorescence anisotropy: 20 mM Tris-HCl pH 7.5, 75 mM NaCl, 75 mM KCl, 2 mM CHAPS, 4 mM MgCl2, 2 mM TCEP, 10% glycerol, 0.5 nM Cy5-DNA, 4 uM ligands, 294 K; conditions: protein: recombinant;recombinant;recombinant, tags: N-terminal His6 (pET15b), copies: 1;1;1
[2] = target: T1, RARalpha dAB dF;RXRalpha dAB (Mus musculus / Homo sapiens (Methods …, UniProt P11416;P19793 82-421;126-462, |)); assay: fluorescence anisotropy; AM580 + CD3254; Fluorescence anisotropy: 20 mM Tris-HCl pH 7.5, 75 mM NaCl, 75 mM KCl, 2 mM CHAPS, 4 mM MgCl2, 2 mM TCEP, 10% glycerol, 0.5 nM Cy5-DNA, 4 uM ligands, 294 K; conditions: protein: recombinant;recombinant, tags: N-terminal His6 (pET15b), copies: 1;1, label: Cy5 on forward strand
[3] = target: T1, RARalpha dAB dF;RXRalpha dAB; assay: fluorescence anisotropy; BMS493; Fluorescence anisotropy: 20 mM Tris-HCl pH 7.5, 75 mM NaCl, 75 mM KCl, 2 mM CHAPS, 4 mM MgCl2, 2 mM TCEP, 10% glycerol, 0.5 nM Cy5-DNA, 4 uM ligands, 294 K; conditions: protein: recombinant;recombinant, tags: N-terminal His6 (pET15b), copies: 1;1, label: Cy5 on forward strand
[4] = target: T1, RARalpha dAB dF;RXRalpha dAB; assay: fluorescence anisotropy; apo; Fluorescence anisotropy: 20 mM Tris-HCl pH 7.5, 75 mM NaCl, 75 mM KCl, 2 mM CHAPS, 4 mM MgCl2, 2 mM TCEP, 10% glycerol, 0.5 nM Cy5-DNA, 4 uM ligands, 294 K; conditions: protein: recombinant;recombinant, tags: N-terminal His6 (pET15b), copies: 1;1, label: Cy5 on forward strand
[5] = target: T2, HsRXRAΔAB (retinoid X receptor alpha without the A/B domain) (human (printed as HsRXRAΔAB; the same …, UniProt P19793 126-462); assay: HDX-MS; RAR/RXR and RR–DNA (DR0, DR1, DR5, IR0) with and without NCoRNID, with BMS493; 4°C, 20 μM complex diluted 10-fold into deuterated buffer pD 7.5; 4 s to 10 800 s; RAR and RXR read as subunits of the heterodimer; conditions: both partners purified
T2 construct: A/B domain removed; In the rows of this molecule it stood as a subunit of the RAR/RXR heterodimer; Vector pET28b; also called RXRα; MmRXRAΔAB; source: E. coli BL21 (DE3), purified (HisTrap HP, thrombin cleavage, SEC Superdex 75); not shown: His6, N-terminal, cleaved
T2 sequence (looked up): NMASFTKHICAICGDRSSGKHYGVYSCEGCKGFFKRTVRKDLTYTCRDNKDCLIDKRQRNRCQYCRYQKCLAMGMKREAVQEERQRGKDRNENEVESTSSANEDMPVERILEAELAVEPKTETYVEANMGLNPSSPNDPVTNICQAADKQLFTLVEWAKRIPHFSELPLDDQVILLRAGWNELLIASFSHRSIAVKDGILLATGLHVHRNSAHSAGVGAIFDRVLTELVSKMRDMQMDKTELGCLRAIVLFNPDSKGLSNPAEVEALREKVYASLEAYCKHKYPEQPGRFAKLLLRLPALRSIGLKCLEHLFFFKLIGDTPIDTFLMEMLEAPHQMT

[6] = target: Alexa488-labeled TIF-2NRID; assay: fluorescence polarisation; steady-state fluorescence anisotropy; RR–IR0 titrated against 10 nM Alexa488-TIF-2NRID with 12 μM AM580 and CD3254; same buffer
[7] = target: Alexa488-labeled TIF-2NRID; assay: fluorescence polarisation; steady-state fluorescence anisotropy; RR–DR0 titrated against 10 nM Alexa488-TIF-2NRID with 12 μM AM580 and CD3254; same buffer
[8] = target: B3; assay: SEC-MALS; with SDS–PAGE; complexes of RR–DNA and NCoRNID formed in the presence of BMS493; conditions: both partners purified
[9] = target: Alexa488-labeled TIF-2NRID; assay: fluorescence polarisation; steady-state fluorescence anisotropy; RAR/RXR without DNA titrated (from 4 μM, 2-fold dilutions) against 10 nM Alexa488-TIF-2NRID with 12 μM AM580 and CD3254; 20 mM Tris–HCl pH 7.5, 75 mM NaCl, 75 mM KCl, 2 mM CHAPS, 4 mM MgCl2, 5 mM DTT, 10% glycerol
[10] = target: TIF-2NRID (nuclear receptor interaction domain of the transcriptional intermediary factor 2); assay: SEC; with SDS–PAGE; complexes of RR–DNA and TIF-2NRID formed in the presence of both agonists (AM580, CD3254)
[11] = target: NCoRNID mut1 (IR region replaced by a fully disordered segment) (UniProt Q60974); assay: MST; RAR/RXR bound to DR1 DNA (RR–DR1), no ligand (apo); heterodimer titrated against labelled NCoRNID; same buffer, 22°C
[12] = target: Alexa488-labeled TIF-2NRID; assay: fluorescence polarisation; steady-state fluorescence anisotropy; RR–DR1 titrated against 10 nM Alexa488-TIF-2NRID with 12 μM AM580 and CD3254; same buffer
[13] = target: Alexa488-labeled TIF-2NRID; assay: fluorescence polarisation; steady-state fluorescence anisotropy; RR–DR5 titrated against 10 nM Alexa488-TIF-2NRID with 12 μM AM580 and CD3254; same buffer
[14] = target: NCoRNID mut2 (point mutations designed to disrupt the helical folding of the IR region) (UniProt Q60974); assay: MST; RAR/RXR bound to DR5 DNA (RR–DR5), no ligand (apo); heterodimer titrated against labelled NCoRNID; same buffer, 22°C
[15] = target: NCoRNID mut2 (point mutations designed to disrupt the helical folding of the IR region) (UniProt Q60974); assay: MST; RR–DR5 with BMS493; heterodimer titrated against labelled NCoRNID; same buffer, 22°C
[16] = target: T2, HsRXRAΔAB (retinoid X receptor alpha …); assay: SEC-MALS; purified RAR/RXR heterodimer; single peak, molecular weight matching the heterodimer; conditions: both partners purified
[17] = 5' overhang 1 nt at both ends (so in the source)

B1: DR5 Rarb2 (dsDNA)
DNA 1: AGGGTTCACCGAAAGTTCACT
DNA 2: AGTGAACTTTCGGTGAACCCT
- binding result ([1]; blunt): binds

B2: DR1 idealized Cy5 (dsDNA)
DNA 1: CTAGGTCAAAGGTCAGC
DNA 2: GCTGACCTTTGACCTAG
- Kd ([2]; blunt): 8.7 ± 2.9 nM
- Kd ([3]; blunt): 24.6 ± 5 nM
- Kd ([4]; blunt): 6.1 ± 2.2 nM

Binder: B3
- binding result [5]: binds

B4: DR0 Hoxb13 Cy5 (dsDNA)
DNA 1: GAAGGTCAAGGCCAAG
DNA 2: CTTGGCCTTGACCTTC
- Kd ([2]; blunt): 24.1 ± 17.3 nM
- Kd ([3]; blunt): 101 ± 48.1 nM
- Kd ([4]; blunt): 33.5 ± 16.4 nM

B5: DR1 idealized (dsDNA)
DNA 1: CTAGGTCAAAGGTCAGC
DNA 2: GCTGACCTTTGACCTAG
- binding result ([1]; blunt): binds

B6: DR5 Rarb2 Cy5 (dsDNA)
DNA 1: AGGGTTCACCGAAAGTTCACT
DNA 2: AGTGAACTTTCGGTGAACCCT
- Kd ([2]; blunt): 2.4 ± 0.9 nM
- Kd ([3]; blunt): 15 ± 2 nM
- Kd ([4]; blunt): 1.7 ± 0.8 nM

- Kd [6]: 22.7 nM
- Kd [7]: 55.1 nM
- stoichiometry N [8]: 1
- Kd [9]: 126 nM
- stoichiometry N [10]: 1
- Kd [11]: 347 nM
- Kd [12]: 30.1 nM
- Kd [13]: 27.7 nM
- Kd [14]: 576 nM
- Kd [15]: 538 nM
B7: RAR/RXR heterodimer (RARAΔABF with RXRAΔAB) (complex)
chain 1: PRIYKPCFVCQDKSSGYHYGVSACEGCKGFFRRSIQKNMVYTCHRDKNCIINKVTRNRCQYCRLQKCFDVGMSKESVRNDRNKKKKEAPKPECSESYTLTPEVGELIEKVRKAHQETFPALCQLGKYTTNNSSEQRVSLDIDLWDKFSELSTKCIIKTVEFAKQLPGFTTLTIADQITLLKAACLDILILRICTRYTPEQDTMTFSDGLTLNRTQMHNAGFGPLTDLVFAFANQLLPLEMDDAETGLLSAICLICGDRQDLEQPDKVDMLQEPLLEALKVYVRKRRPSRPHMFPKMLMKITDLRSISAKGAERVITLKMEIPGSMPPLIQEMLENSEGLD
chain 2: NMASFTKHICAICGDRSSGKHYGVYSCEGCKGFFKRTVRKDLTYTCRDNKDCLIDKRQRNRCQYCRYQKCLAMGMKREAVQEERQRGKDRNENEVESTSSANEDMPVERILEAELAVEPKTETYVEANMGLNPSSPNDPVTNICQAADKQLFTLVEWAKRIPHFSELPLDDQVILLRAGWNELLIASFSHRSIAVKDGILLATGLHVHRNSAHSAGVGAIFDRVLTELVSKMRDMQMDKTELGCLRAIVLFNPDSKGLSNPAEVEALREKVYASLEAYCKHKYPEQPGRFAKLLLRLPALRSIGLKCLEHLFFFKLIGDTPIDTFLMEMLEAPHQMT
notes: retinoic acid receptor alpha, residues 82-421 of Uniprot entry P11416; as the chain of m1; as the chain of m2; 1:1 heterodimer by SEC-MALS; this is told in the format of each assay; also called RR–DR0; source: E. coli BL21 (DE3); RAR and RXR purified separately, mixed (2-fold excess of RAR), heterodimer purified by SEC (Superdex 200); not shown: His6, N-terminal, cleaved

- stoichiometry N [16]: 1
B8: MmRARAΔABF (retinoic acid receptor alpha without the A/B and F domains) (domain or fragment, UniProt P11416 82-421, looked up)
chain: PRIYKPCFVCQDKSSGYHYGVSACEGCKGFFRRSIQKNMVYTCHRDKNCIINKVTRNRCQYCRLQKCFDVGMSKESVRNDRNKKKKEAPKPECSESYTLTPEVGELIEKVRKAHQETFPALCQLGKYTTNNSSEQRVSLDIDLWDKFSELSTKCIIKTVEFAKQLPGFTTLTIADQITLLKAACLDILILRICTRYTPEQDTMTFSDGLTLNRTQMHNAGFGPLTDLVFAFANQLLPLEMDDAETGLLSAICLICGDRQDLEQPDKVDMLQEPLLEALKVYVRKRRPSRPHMFPKMLMKITDLRSISAKGAERVITLKMEIPGSMPPLIQEMLENSEGLD
notes: retinoic acid receptor alpha, residues 82-421 of Uniprot entry P11416 (DBD, hinge and LBD; A/B and F domains removed); In the rows of this molecule it stood as a subunit of the RAR/RXR heterodimer; Vector pET15b; also called RARα; NR1B1; source: E. coli BL21 (DE3), purified (HisTrap HP)

B9: IR0 Trim16 (dsDNA)
DNA 1: GCAGGGTCATGACCCCGC
DNA 2: CGCGGGGTCATGACCCTG
- binding result [1, 17]: binds

B10: IR0 Trim16 Cy5 (dsDNA)
DNA 1: GCAGGGTCATGACCCCGC
DNA 2: CGCGGGGTCATGACCCTG
- Kd [2, 17]: 3.8 ± 3.1 nM
- Kd [3, 17]: 29.1 ± 24.2 nM
- Kd [4, 17]: 1.9 ± 1.3 nM
